In publication PMC10618305, “An intramolecular disulphide bond in human 4E-T affects its binding to eIF4E1a protein” (European Biophysics Journal, 2023):
Changes are numbered by the printed parent chain. Names and notes keep the numbering of the source. Bridge positions count the residues as written; N and C are the ends.

Key:
[1] = biological target: human eIF4E1a protein (human) (UniProt P06730); assay: differential scanning fluorimetry (thermal shift); non-reducing: 50 mM HEPES-KOH pH 7.2, 100 mM KCl, no TCEP; 5 µM eIF4E1a with 0-50 µM h4E-T(1-68) variant incubated without TCEP (up to 48 h, 4 or 20 °C), or SEC-purified dimers at 1:1; SYPRO Orange; shift of the Tm of eIF4E1a
Sequence of human eIF4E1a protein (human) (P06730 whole entry): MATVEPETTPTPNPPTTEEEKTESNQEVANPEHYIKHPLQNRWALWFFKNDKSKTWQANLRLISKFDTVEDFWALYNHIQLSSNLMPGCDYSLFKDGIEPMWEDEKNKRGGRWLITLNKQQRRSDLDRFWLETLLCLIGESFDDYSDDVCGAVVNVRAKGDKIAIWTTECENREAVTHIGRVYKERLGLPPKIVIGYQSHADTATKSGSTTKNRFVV

[2] = biological target: human 4E-T(1-68) wild type, monomer SH (both cysteines reduced) (human) (UniProt Q9NRA8); assay: SEC; non-reducing: monomer fractions incubated 24 h at 20 °C in TCEP-free 50 mM HEPES-KOH pH 7.2 with KCl, Enrich SEC70 column, 20 °C; dimers are held by intermolecular disulphide bonds
human eIF4E1a protein [3] = biological target: T1, human eIF4E1a protein (human, UniProt P06730 1-217); assay: ITC; non-reducing: 50 mM HEPES-KOH pH 7.2, 100 mM KCl, no TCEP, 20 °C; 20 µM eIF4E1a in the cell titrated with 200 µM h4E-T(1-68) WT; one-site model; details: both partners purified
T1 construct: human eukaryotic translation initiation factor 4E, isoform called eIF4E1a; Extinction coefficient used: 52,940 M^-1 cm^-1; also called heIF4E1a; eukaryotic initiation factor 4E
T1 sequence (P06730 whole entry, canonical isoform): as the sequence (P06730 whole entry) above

human eIF4E1a protein [4] = biological target: T1, human eIF4E1a protein; assay: differential scanning fluorimetry (thermal shift); non-reducing: 50 mM HEPES-KOH pH 7.2, 100 mM KCl, no TCEP; 5 µM eIF4E1a with 0-50 µM h4E-T(1-68) variant incubated without TCEP (up to 48 h, 4 or 20 °C), or SEC-purified dimers at 1:1; SYPRO Orange; shift of the Tm of eIF4E1a; details: both partners purified
human eIF4E1a protein [5] = biological target: T1, human eIF4E1a protein; assay: as above; details: both partners purified; remark: listed apart in the source
human eIF4E1a protein [6] = biological target: T1, human eIF4E1a protein; assay: differential scanning fluorimetry (thermal shift); reducing: 50 mM HEPES-KOH pH 7.2, 100 mM KCl, 1 mM TCEP; 5 µM eIF4E1a with 0-50 µM h4E-T(1-68) variant; SYPRO Orange; shift of the Tm of eIF4E1a; details: both partners purified
[7] = biological target: the molecule itself; assay: SEC; non-reducing: monomer fractions incubated 24 h at 20 °C in TCEP-free 50 mM HEPES-KOH pH 7.2 with KCl, Enrich SEC70 column, 20 °C; dimers are held by intermolecular disulphide bonds
human eIF4E1a protein [8] = biological target: T1, human eIF4E1a protein; assay: ITC; reducing: 50 mM HEPES-KOH pH 7.2, 100 mM KCl, 1 mM TCEP, 20 °C; 5 or 10 µM eIF4E1a in the cell titrated with ten-fold concentrated h4E-T(1-68) variant; one-site model; details: both partners purified
human eIF4E1a protein [9] = biological target: T1, human eIF4E1a protein; assay: differential scanning fluorimetry (thermal shift); reducing: 50 mM HEPES-KOH pH 7.2, 100 mM KCl, 1 mM TCEP; 5 µM eIF4E1a with 0-50 µM h4E-T(1-68) variant; SYPRO Orange; shift of the Tm of eIF4E1a; details: both partners purified; remark: listed apart in the source
human eIF4E1a protein [10] = biological target: T2, human eIF4E1a protein (human, UniProt P06730 1-217); assay: ITC; eIF4E1a in the cell, titrated with a ten-fold concentrated h4E-T(1-68) variant (for WT: 20 uM eIF4E1a, 200 uM h4E-T); 20 °C; 50 mM HEPES-KOH pH 7.2, 100 mM KCl, without TCEP (non-reducing); one-site model; details: both partners purified
T2 construct: eukaryotic translation initiation factor 4E, isoform 1a (eIF4E1a), human; Extinction coefficient used: 52,940 M^-1 cm^-1; also called heIF4E1a; eukaryotic initiation factor 4E
T2 sequence (P06730 whole entry, canonical isoform): as the sequence (P06730 whole entry) above

human eIF4E1a protein [11] = biological target: T2, human eIF4E1a protein; assay: ITC; eIF4E1a (5 or 10 uM) in the cell, titrated with a ten-fold concentrated h4E-T(1-68) variant; 20 °C; 50 mM HEPES-KOH pH 7.2, 100 mM KCl, with 1 mM TCEP (reducing); one-site model; details: both partners purified

dimeric form of human 4E-T(1-68) C50A (intermolecular disulphide bond) (from UniProt Q9NRA8 1-68) (complex)
fold lower ΔTm than the corresponding monomer [1]: 2 fold
ΔTm lower than that of the monomer-dimer mixture [1]: 2.5 °C
ΔΔTm against the monomer SS of WT h4E-T(1-68), 1:1 mixture [1]: 7 °C

dimeric form of human 4E-T(1-68) C26A (intermolecular disulphide bond) (from UniProt Q9NRA8 1-68) (complex)
fold lower ΔTm than the corresponding monomer [1]: 2 fold
ΔTm lower than that of the monomer-dimer mixture [1]: 2.5 °C
ΔΔTm against the monomer SS of WT h4E-T(1-68), 1:1 mixture [1]: 5.5 °C

human 4E-T(1-68) wild type, monomer SH (both cysteines reduced) (from UniProt Q9NRA8 1-68) (domain or fragment)
percent in the dimeric form [2]: 10%
stoichiometry N [2]: 2

B1: human 4E-T(1-68) wild type with the intramolecular disulphide bond Cys26-Cys50 (monomer SS) (domain or fragment, UniProt Q9NRA8 1-68, looked up)
chain: MDRRSMGETESGDAFLDLKKPPASKCPHRYTKEELLDIKELPHSKQRPSCLSEKYDSDGVWDPEKWHA
modifications: disulfide 26-50
notes: human 4E-Transporter (4E-T), N-terminal fragment, residues 1-68; Same construct as m2, oxidised; The samples without TCEP may still hold some monomer SH and a small fraction of dimer; also called h4E-T(1-68) WT under non-reducing conditions; disulphide loop form
Kd (human eIF4E1a protein [3]): 800 ± 96 nM
ΔTm of eIF4E at eIF4E:h4E-T(1-68) 1:1 (human eIF4E1a protein [4]): 1 ± 0.5 °C
ΔTm of eIF4E at eIF4E:h4E-T(1-68) 1:10 (human eIF4E1a protein [4]): 9.5 ± 0.5 °C
Tm of eIF4E in the 1:1 mixture (melting peak after 3 h at 20 °C without TCEP) (human eIF4E1a protein [5]): 41.5 ± 0.5 °C

B2: human 4E-T(1-68) C26A (domain or fragment, UniProt Q9NRA8 1-68, looked up)
chain: B1 chain with C26A
notes: human 4E-Transporter (4E-T), N-terminal fragment, residues 1-68; Without TCEP the samples are a mixture of monomer and disulphide-linked dimer; also called C26A mutant; C26 mutant
ΔTm of eIF4E at eIF4E:h4E-T(1-68) 1:1 (human eIF4E1a protein [6]): 12 ± 0.5 °C
ΔTm of eIF4E at eIF4E:h4E-T(1-68) 1:10 (human eIF4E1a protein [6]): 15.5 ± 0.5 °C
stoichiometry N [7]: 2
ΔTm of eIF4E at eIF4E:h4E-T(1-68) 1:1 (human eIF4E1a protein [4]): 9 ± 0.5 °C
ΔTm of eIF4E at eIF4E:h4E-T(1-68) 1:10 (human eIF4E1a protein [4]): 12.5 ± 0.5 °C
Kd (human eIF4E1a protein [8]): 1.5 ± 0.5 nM

B3: human 4E-T(1-68) C26AC50A (domain or fragment, UniProt Q9NRA8 1-68, looked up)
chain: B1 chain with C26A, C50A
notes: human 4E-Transporter (4E-T), N-terminal fragment, residues 1-68; also called double cysteine mutant
ΔTm of eIF4E at eIF4E:h4E-T(1-68) 1:1 (human eIF4E1a protein [4]): 10.5 ± 0.5 °C
ΔTm of eIF4E at eIF4E:h4E-T(1-68) 1:10 (human eIF4E1a protein [4]): 14.5 ± 0.5 °C
Kd (human eIF4E1a protein [8]): 3.1 ± 0.2 nM

B4: human 4E-T(1-68) C50A (domain or fragment, UniProt Q9NRA8 1-68, looked up)
chain: B1 chain with C50A
notes: human 4E-Transporter (4E-T), N-terminal fragment, residues 1-68; Without TCEP the samples are a mixture of monomer and disulphide-linked dimer; also called C50A mutant
ΔTm of eIF4E at eIF4E:h4E-T(1-68) 1:1 (human eIF4E1a protein [6]): 11.5 ± 0.5 °C
ΔTm of eIF4E at eIF4E:h4E-T(1-68) 1:10 (human eIF4E1a protein [6]): 15.5 ± 0.5 °C
stoichiometry N [7]: 2
ΔTm of eIF4E at eIF4E:h4E-T(1-68) 1:1 (human eIF4E1a protein [4]): 10.5 ± 0.5 °C
ΔTm of eIF4E at eIF4E:h4E-T(1-68) 1:10 (human eIF4E1a protein [4]): 14.5 ± 0.5 °C
ΔTm of eIF4E at eIF4E:h4E-T(1-68) 1:1 (human eIF4E1a protein [9]): 12 ± 0.5 °C

B5: human 4E-T(1-68) wild type, monomer SH (both cysteines reduced) (domain or fragment, UniProt Q9NRA8 1-68, looked up)
chain: B1 chain
notes: pET28a construct, His6-tag cleavable by thrombin; also called h4E-T(1-68) WT; h4ET(1-68)
ΔTm of eIF4E at eIF4E:h4E-T(1-68) 1:1 (human eIF4E1a protein [6]): 12 ± 0.5 °C
ΔTm of eIF4E at eIF4E:h4E-T(1-68) 1:10 (human eIF4E1a protein [6]): 15.5 ± 0.5 °C
Kd (human eIF4E1a protein [8]): 2.7 ± 0.5 nM
Tm of eIF4E in the 1:1 mixture (zero time) (human eIF4E1a protein [9]): 52.5 ± 0.5 °C
Tm of eIF4E in the 1:1 mixture (melting peak after 3 h at 20 °C without TCEP) (human eIF4E1a protein [5]): 51.5 ± 0.5 °C

B6: human 4E-T(1-68) wild type under non-reducing conditions (monomer SS, intramolecular disulphide bond) (domain or fragment, UniProt Q9NRA8 1-68, looked up)
chain: B1 chain
modifications: disulfide 26-50
notes: 4E-Transporter (4E-T), human, residues 1-68; Same construct as Wm2, in TCEP-free buffer; also called h4E-T(1-68) WT without TCEP; disulphide loop form
Ka (human eIF4E1a protein [10]): 1.25e+06 ± 150000 M⁻¹

B7: human 4E-T(1-68) C26A (domain or fragment, UniProt Q9NRA8 1-68, looked up)
chain: B1 chain with C26A
notes: 4E-Transporter (4E-T), human, residues 1-68, with C26A; also called h4E-T(1-68)C26A; C26A mutant
Ka (human eIF4E1a protein [10]): ~1e+08 M⁻¹
Ka (human eIF4E1a protein [11]): 6.64e+08 ± 8.4e+07 M⁻¹

B8: human 4E-T(1-68) C26AC50A (domain or fragment, UniProt Q9NRA8 1-68, looked up)
chain: B1 chain with C26A, C50A
notes: 4E-Transporter (4E-T), human, residues 1-68, with C26A and C50A; This mutant cannot form any disulphide bond; also called h4E-T(1-68)C26AC50A; double cysteine mutant
Ka (human eIF4E1a protein [10]): 3.27e+08 ± 2.2e+07 M⁻¹

B9: human 4E-T(1-68) wild type, reduced (monomer SH) (domain or fragment, UniProt Q9NRA8 1-68, looked up)
chain: B1 chain
notes: 4E-Transporter (4E-T), human, residues 1-68; The His6-tag is cleavable by thrombin, but no cleavage is described; Kept in 1 mM TCEP, with both cysteines reduced; also called h4E-T(1-68) WT; h4ET(1-68)
Ka (human eIF4E1a protein [11]): 3.73e+08 ± 6.8e+07 M⁻¹
